In patent US6403637 (dated 2002):

T1: collagenase-3 receptor (170 kDa protein) of mouse embryo fibroblasts MEF-1 and MEF-2 (mouse, UniProt Q64449 31-1479)
T1 construct: whole, on cells
T1 sequence (looked up): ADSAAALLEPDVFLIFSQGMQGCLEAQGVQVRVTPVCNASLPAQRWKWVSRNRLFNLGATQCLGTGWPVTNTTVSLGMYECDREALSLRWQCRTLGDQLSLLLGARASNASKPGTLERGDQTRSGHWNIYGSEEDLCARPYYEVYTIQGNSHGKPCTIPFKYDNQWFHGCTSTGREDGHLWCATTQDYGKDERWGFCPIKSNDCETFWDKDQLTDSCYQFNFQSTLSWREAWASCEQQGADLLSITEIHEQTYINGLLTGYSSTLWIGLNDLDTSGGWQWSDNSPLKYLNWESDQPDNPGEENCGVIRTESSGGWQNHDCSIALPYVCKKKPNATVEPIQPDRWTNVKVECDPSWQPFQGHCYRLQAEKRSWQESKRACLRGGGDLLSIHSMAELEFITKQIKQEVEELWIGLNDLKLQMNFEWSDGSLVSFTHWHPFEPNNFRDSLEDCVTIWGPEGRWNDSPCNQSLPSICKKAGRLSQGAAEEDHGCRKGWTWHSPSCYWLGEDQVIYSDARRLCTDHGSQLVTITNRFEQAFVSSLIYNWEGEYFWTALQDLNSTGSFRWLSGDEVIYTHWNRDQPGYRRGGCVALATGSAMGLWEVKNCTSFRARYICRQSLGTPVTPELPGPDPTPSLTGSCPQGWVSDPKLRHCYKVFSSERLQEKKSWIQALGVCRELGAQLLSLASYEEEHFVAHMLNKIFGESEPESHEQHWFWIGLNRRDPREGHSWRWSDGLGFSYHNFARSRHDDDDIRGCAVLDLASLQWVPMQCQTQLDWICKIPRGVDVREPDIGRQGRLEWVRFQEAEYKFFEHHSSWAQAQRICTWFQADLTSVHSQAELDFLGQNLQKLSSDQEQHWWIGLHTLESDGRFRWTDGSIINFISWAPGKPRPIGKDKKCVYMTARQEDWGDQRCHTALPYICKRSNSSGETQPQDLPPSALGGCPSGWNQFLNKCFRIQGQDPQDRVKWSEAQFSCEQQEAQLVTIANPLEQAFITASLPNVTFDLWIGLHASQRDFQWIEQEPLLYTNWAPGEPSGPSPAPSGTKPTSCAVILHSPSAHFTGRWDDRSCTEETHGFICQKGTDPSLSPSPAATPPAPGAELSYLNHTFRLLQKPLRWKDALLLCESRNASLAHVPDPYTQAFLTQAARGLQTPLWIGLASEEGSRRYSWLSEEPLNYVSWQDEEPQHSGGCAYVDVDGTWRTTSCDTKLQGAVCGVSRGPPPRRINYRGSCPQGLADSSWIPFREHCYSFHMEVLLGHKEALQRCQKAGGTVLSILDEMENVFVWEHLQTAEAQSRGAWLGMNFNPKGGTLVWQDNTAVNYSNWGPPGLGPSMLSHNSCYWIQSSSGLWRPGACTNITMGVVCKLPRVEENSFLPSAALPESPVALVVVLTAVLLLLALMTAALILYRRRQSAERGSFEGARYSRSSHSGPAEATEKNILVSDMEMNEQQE


Assays:
[1] = target: T1, collagenase-3 receptor (170 kDa …); test: competition with ^125I mouse collagenase-3 on MEF-2 (LRP null) cells; 200-, 400- and 800-fold excess of competitor
Source text: This sequence corresponds to a published low density lipoprotein receptor-related protein consensus binding sequence.

[2] = target: T2, rat collagenase-3 receptor (170 kDa protein) of UMR 106-01 rat osteosarcoma cells and other rat cells (rat); test: Scatchard analysis of ^125I-mMMP-13 binding to UMR106-01 cells; high affinity site (ostensibly the collagenase-3 receptor)
T2 construct: whole, on cells; on blotted cell membranes in the ligand blots; also called collagenase receptor; rat collagenase receptor

[3] = target: T3, low density lipoprotein receptor-related protein of rat cells (UMR 106-01, normal rat osteoblasts) (rat); test: computer analysis of ^125I-mMMP-13 binding to UMR106-01 cells; lower affinity site
T3 construct: whole, on cells; On blotted membranes in ligand and Western blots; also called LRP; 600 kDa protein

[4] = target: T2, rat collagenase-3 receptor (170 kDa …); test: from the Scatchard analysis on UMR 106-01 cells
[5] = target: T3, low density lipoprotein …; test: Scatchard analysis of ^125I-mMMP-13 binding to UMR106-01 cells; lower affinity site (ostensibly the low density lipoprotein receptor-related protein)

T3 sequence (G3V928 20-3944): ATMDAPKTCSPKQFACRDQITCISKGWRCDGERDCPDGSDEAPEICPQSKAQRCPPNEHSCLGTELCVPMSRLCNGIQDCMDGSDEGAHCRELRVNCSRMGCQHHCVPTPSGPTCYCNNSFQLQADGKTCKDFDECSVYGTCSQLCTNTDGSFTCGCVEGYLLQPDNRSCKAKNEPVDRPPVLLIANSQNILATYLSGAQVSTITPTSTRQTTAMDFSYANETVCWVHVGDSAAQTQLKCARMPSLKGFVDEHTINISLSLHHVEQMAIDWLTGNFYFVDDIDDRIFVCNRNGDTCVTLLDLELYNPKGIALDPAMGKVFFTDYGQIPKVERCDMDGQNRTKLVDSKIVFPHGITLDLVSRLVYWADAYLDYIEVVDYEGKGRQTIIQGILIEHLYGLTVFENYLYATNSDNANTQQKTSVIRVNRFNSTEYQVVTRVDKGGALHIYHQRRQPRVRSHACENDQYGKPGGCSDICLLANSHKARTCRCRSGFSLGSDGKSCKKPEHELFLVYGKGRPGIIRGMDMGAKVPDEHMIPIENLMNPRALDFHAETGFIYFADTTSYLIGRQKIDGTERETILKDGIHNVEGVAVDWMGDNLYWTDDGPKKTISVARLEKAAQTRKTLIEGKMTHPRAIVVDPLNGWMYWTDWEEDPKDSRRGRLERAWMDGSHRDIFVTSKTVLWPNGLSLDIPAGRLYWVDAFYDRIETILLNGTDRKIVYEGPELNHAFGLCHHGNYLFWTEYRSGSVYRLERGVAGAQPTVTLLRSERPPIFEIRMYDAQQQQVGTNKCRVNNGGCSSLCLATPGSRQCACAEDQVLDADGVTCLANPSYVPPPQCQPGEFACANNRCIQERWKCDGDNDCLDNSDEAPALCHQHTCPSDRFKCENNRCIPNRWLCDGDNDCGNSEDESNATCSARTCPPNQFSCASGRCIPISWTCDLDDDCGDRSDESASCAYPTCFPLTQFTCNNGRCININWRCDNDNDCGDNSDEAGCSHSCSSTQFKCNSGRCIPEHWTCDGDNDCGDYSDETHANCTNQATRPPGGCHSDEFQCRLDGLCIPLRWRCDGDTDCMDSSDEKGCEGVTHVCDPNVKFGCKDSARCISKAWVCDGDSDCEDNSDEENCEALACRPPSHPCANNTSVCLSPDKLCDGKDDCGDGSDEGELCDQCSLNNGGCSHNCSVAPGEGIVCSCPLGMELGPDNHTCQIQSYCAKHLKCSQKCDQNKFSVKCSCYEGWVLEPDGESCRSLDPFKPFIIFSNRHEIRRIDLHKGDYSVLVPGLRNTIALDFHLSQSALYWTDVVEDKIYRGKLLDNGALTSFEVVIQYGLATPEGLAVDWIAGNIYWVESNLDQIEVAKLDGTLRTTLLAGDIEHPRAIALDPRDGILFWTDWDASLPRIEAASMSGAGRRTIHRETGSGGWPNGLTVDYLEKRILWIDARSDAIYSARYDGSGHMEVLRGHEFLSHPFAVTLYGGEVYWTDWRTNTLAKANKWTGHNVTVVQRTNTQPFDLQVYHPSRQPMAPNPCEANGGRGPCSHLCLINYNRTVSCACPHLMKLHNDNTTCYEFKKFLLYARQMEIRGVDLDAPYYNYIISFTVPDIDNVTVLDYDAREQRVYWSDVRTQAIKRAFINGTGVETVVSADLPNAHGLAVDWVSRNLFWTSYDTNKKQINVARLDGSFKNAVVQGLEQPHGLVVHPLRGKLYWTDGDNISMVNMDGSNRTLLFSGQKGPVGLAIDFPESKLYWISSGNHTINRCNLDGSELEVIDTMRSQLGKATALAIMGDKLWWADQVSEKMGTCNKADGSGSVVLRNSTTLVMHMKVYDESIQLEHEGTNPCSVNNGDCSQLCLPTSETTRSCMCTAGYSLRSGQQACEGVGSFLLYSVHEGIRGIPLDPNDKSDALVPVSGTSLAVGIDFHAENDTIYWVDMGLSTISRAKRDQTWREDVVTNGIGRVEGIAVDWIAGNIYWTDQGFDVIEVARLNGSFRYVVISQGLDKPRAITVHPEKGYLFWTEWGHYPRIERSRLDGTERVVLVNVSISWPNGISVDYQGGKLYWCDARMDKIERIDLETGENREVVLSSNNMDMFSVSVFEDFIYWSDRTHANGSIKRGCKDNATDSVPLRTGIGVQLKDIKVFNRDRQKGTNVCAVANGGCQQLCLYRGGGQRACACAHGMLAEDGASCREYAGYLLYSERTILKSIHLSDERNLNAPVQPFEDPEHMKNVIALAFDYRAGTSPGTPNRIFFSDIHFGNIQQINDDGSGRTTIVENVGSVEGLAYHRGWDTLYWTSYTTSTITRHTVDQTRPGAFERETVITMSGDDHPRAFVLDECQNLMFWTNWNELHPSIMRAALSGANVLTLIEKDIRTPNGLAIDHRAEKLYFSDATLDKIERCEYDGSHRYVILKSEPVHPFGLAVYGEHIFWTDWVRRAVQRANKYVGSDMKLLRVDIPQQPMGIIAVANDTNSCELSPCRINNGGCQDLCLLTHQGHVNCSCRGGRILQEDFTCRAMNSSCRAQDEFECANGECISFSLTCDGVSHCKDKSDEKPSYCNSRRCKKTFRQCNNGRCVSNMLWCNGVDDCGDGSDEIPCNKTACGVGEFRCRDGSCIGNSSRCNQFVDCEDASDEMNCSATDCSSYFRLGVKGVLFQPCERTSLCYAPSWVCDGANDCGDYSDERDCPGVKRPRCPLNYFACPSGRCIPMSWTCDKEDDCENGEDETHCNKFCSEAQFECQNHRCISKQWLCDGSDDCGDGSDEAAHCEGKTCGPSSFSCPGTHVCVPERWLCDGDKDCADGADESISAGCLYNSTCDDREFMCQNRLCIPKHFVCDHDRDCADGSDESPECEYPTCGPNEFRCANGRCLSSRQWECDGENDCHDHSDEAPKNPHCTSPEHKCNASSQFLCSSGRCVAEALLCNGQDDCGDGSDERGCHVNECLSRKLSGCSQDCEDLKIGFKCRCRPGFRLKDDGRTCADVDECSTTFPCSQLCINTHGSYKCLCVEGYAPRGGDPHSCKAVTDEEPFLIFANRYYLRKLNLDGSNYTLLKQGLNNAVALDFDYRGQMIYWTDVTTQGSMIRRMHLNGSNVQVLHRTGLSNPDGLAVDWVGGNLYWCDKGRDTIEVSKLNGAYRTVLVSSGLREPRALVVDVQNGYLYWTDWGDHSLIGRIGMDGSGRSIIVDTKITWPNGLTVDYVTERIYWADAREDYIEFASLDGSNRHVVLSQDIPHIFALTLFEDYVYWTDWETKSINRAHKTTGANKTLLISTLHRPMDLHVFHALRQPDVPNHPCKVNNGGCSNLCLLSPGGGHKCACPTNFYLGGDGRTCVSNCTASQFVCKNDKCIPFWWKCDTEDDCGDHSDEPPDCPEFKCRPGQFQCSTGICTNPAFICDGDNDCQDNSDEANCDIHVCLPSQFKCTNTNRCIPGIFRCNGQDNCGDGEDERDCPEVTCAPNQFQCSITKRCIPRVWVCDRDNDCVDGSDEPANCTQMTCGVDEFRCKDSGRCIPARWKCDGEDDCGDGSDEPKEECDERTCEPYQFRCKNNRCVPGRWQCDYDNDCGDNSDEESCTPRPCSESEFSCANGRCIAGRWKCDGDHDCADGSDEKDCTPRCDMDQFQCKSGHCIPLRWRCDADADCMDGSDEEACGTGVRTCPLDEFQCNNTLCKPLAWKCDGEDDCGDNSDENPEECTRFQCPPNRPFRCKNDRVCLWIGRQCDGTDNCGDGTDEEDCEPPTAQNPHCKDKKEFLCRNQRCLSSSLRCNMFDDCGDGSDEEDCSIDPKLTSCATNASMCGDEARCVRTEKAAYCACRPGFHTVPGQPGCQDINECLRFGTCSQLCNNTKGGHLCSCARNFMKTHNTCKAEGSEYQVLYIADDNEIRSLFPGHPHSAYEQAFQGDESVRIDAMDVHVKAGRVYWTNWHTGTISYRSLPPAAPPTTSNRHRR

Binder	percent of mouse collagenase-3 binding [1]	Kd [2]	Kd [3]	fold higher affinity compared to the low density lipoprotein receptor-related protein [4]	Kd [5]
C-terminally truncated mouse collagenase-3, M(1-265) (enzyme, range 1-265; also called MMP-13 (1-265); truncated MMP-13; not shown: N-terminal 6×His purification tag of pET30) not shown	99.4%	–	–	–	–
H/M(229-472) chimeric collagenase (enzyme, 62 kDa; not shown: N-terminal 6×His purification tag of pET30) not shown	0%	–	–	–	–

Results, then the binder that gave them:

percent of mouse collagenase-3 binding [1]	Kd [2]	Kd [3]	fold higher affinity compared to the low density lipoprotein receptor-related protein [4]	Kd [5]	Binder
15.3%	–	–	–	–	HM/M(141-472) chimeric collagenase (enzyme, 62 kDa; not shown: N-terminal 6×His purification tag of pET30) not shown
100%	3.9 nM	52.8 nM	~10 fold	46.2 nM	recombinant mouse collagenase-3 (mMMP-13, residues 1-472) (enzyme, ^125I-labeled where used as tracer, not shown: N-terminal 6×His purification tag of pET30) not shown
